Test results taken from PMC7439511.

Biological target: GST-PHD^RACK7 (human)
Test: MST

Kd: 6 µM
Substance: H3.3G34R peptide (amino acids 22 to 44) (from UniProt P84243 23-45)
